Test results as given in PMC6727741.

Biological target: IFT dynein heavy chain (D1bHC) (Chlamydomonas reinhardtii (endogenous in cc4533 and wdr92-1 cells)) (UniProt Q9SMH5)
Experiment: SEC

IFT dynein heavy chain (D1bHC), Q9SMH5 1-4334
stoichiometry N: 2
